Experimental data: patent publication US11648290B2, “Cartilage-homing peptides” (FRED HUTCHINSON CANCER CENTER, priority 2015, dated 2023)

Experiments:
cartilage [1] = test: Cartilage homing, no method given; conditions: in vivo
cartilage [2] = conditions: for Cartilage (C): percentage of signal in the cartilage compared to the blood signal in the heart ventricle / Muscle (M): signal compared to the level in the blood: 3 hours after administration, ligated kidneys, 14C-labelled peptide, tail vein
Procedure: This example describes a dosing scheme for administering knottin peptides to mice in conjunction with kidney ligation. Different dosages of the peptides were administered to Female Harlan athymic nude mice, weighing 20 g-25 g, via tail vein injection (n=2 mice per knottin). The experiment was done in duplicates. The kidneys were ligated to prevent renal filtration of the peptides. Each peptide was radiolabeled by methylating lysines and the N-terminus, so the actual binding agent may contain methyl or dimethyl lysine(s) and a methylated or dimethylated amino terminus.
A target dosage of 50-100 nmol of each peptide carrying 10-25 uCi of ^14C was administered to Female Harlan athymic nude mice while anesthetized. Each peptide was allowed to freely circulate within the animal before the animals were euthanized and sectioned.
This example illustrates peptide homing to cartilage of mice with kidneys that were ligated prior to peptide administration. At the end of the dosing period in EXAMPLE 3, mice were frozen in a hexane/dry ice bath and then frozen in a block of carboxymethylcellulose. […] Thin, frozen sections of animal including imaging of tissues such as brain, tumor, liver, kidney, lung, heart, spleen, pancreas, muscle, adipose, gall bladder, upper gastrointestinal tract, lower gastrointestinal tract, bone, bone marrow, reproductive track, eye, cartilage, stomach, skin, spinal cord, bladder, salivary gland, and other types of tissues were obtained with a microtome, allowed to desiccate in a freezer, and exposed to phosphoimager plates for about ten days.
These plates were developed, and the signal (densitometry) from each organ was normalized to the signal found in the heart blood of each animal. A signal in tissue darker than the signal expected from blood in that tissue indicates peptide accumulation in a region, tissue, structure or cell. For instance, the cartilage is avascular and contains minute amounts of blood. A ratio of at least 170% signal in the cartilage versus heart ventricle was chosen as a reference level for significant targeting to cartilage, which also correlated with clear accumulation in cartilaginous tissues in the images of the slices.
The SEQ ID NO: 24 peptide was radiolabeled as in Example 3 and 100 nmol of peptide was injected into a mouse with intact kidneys. FIG. 5 illustrates the retention of and the tissue distribution in the cartilage of a peptide of SEQ ID NO: 24, 24 hours after administration.

[3] = tested on: cartilage (IVD, knee / synovial joints); test: Whole body autoradiography (WBA) of radiolabeled cartilage homing peptides (Example 21); format: in vivo, Female Harlan athymic nude mice; conditions: for Signal in the intervertebral disc (IVD), Average: percentage of blood
Procedure: This example illustrates peptide homing to cartilage mice 5 minutes to 48 hours after administration of a radiolabeled peptide. Signal from the radiolabeled peptides was found in all types of cartilage at each time point examined. Each peptide was radiolabeled by methylating […] as described in EXAMPLE 2. As such, the peptide may contain methyl or dimethyl lysines and a methylated or dimethylated amino terminus. A dose of 100 nmol radiolabeled peptide was administered via tail vein injection in Female Harlan athymic nude mice, weighing 20-25 g. The experiment was done in duplicate (n=2 animals per group). In some animals, kidneys were ligated to prevent renal filtration of the radiolabeled peptides and extend plasma half-life. Each radiolabeled peptide was allowed to freely circulate within the animal for the described time period before the animals were euthanized and sectioned.
Whole body autoradiography (WBA) sagittal sectioning was performed as follows. […] Sections were allowed to desiccate in a freezer prior to imaging.
For the autoradiography imaging, tape mounted thin sections were freeze dried and radioactive samples were exposed to phophoimager plates for 7 days.

[4] = Temperature stability of peptides (RP-HPLC); format: physicochemical
Procedure: This example illustrates peptide stability at high temperatures. Peptides were first suspended in 500 μl of ddH2O to a stock concentration of 2 mg/ml. Reactions were prepared by adding 6.25 μl of peptide from the stock solution with 95 μl ddH2O and incubated at room temperature, 70° C., or 100° C. for one hour in a Thermocycler. RP-HPLC was then run on samples using an Agilent 1260 HPLC equipped with a C-18 Poroshell 120B column. Sample were analyzed by a gradient method with a mobile phase of Solvent A (water with 0.1% TFA) and Solvent B (acetonitrile with 0.1% TFA). Solvent B was ramped up from 5%-45% of the mobile phase over a period of 10 minutes.
Peptides of SEQ ID NO: 28 and SEQ ID NO: 483 were analyzed by HPLC after incubation at room temperature (25° C.), 70° C., or 100° C. for one hour.

[5] = Peptide resistance to reducing agents (10 mM DTT, RP-HPLC); format: physicochemical; conditions: 10 mM DTT in PBS, room temperature, 30 minutes
Procedure: Several peptides were suspended in 500 μl of ddH2O to a stock concentration of 2 mg/ml. Reactions were prepared by adding 12.5 μg peptide from the stock solution to a 10 mM solution of DTT in PBS and allowed to incubate at room temperature for 30 minutes. RP-HPLC was run on samples using an Agilent 1260 HPLC equipped with a C-18 Poroshell 120B column. Samples were analyzed by a gradient method with a mobile phase of Solvent A (water with 0.1% TFA) and Solvent B (acetonitrile with 0.1% TFA). Solvent B was ramped up from 5%-45% of the mobile phase over a period of 10 minutes.
Peptides were fractionated by HPLC and without any further sample prep, 5 μl of the sample was injected into the mass spectrometer at 1 mg/ml using a CTCPAL® autosampler. Alternatively, if peptides were provided as a lyophilized powder, the sample was dissolved in 100% water to a concentration of 1 mg/ml a Millipore Ziptip C18® column was used to desalt the peptides prior to injection for ES-MS. The mass spectrometer was calibrated using 5 pmol of mixture of five standard peptides to achieve a high accuracy of mass determination with less than a 10 ppm error. Confirmation of peptide disulfide bond formation was achieved by analyzing the m/z isotopic distribution and the exact charge. All peptides tested are shown under reducing and non-reducing conditions.

[6] = 3 hr after 100 nmol radiolabeled peptide
[7] = 24 hr after 100 nmol radiolabeled peptide

In the case of “GSGDCLPHLKRCKENNDCCSKKCKRRGANPEKRCR [SEQ ID NO: 205]”, the “Cartilage homing” value (cartilage [1]) is reported as “home to cartilage”.

In the case of “198 (GSAVCNLKRCQLSCRSLGLLGKCIGDKCECVKHG) [compound 198]”, the “Cartilage (C): percentage of signal in the cartilage compared to the blood signal in the heart ventricle” value (“Cartilage (C): percentage of signal” below) (cartilage [2]) is reported as 276% and the “Muscle (M): signal compared to the level in the blood” value (cartilage [2]) is reported as 26%.

In the case of “GSSEKDCIKHLQRCRENKDCCSKKCSRRGTNPEKRCR [SEQ ID NO: 22]”, the “Cartilage homing” value (cartilage [1]) is reported as “home to cartilage”.

In the case of “GSSERDCIRHLQRCRENRDCCSRRCSRRGTNPERRCR [SEQ ID NO: 109]”, the “Cartilage homing (qualitative, WBA)” value ([3]; 100 nmol radiolabeled peptide) is reported as “showed signal in cartilage and exhibited cartilage homing properties”, the “Change of signal in IVD and joint cartilage between 3 and 24 hours” value (“Change of signal” for short) ([3]; 100 nmol radiolabeled peptide) is reported as “maintained or increased” and the “Rank of signal in cartilage among SEQ ID NO: 109, 200, 110, 114” value ([3]; 100 nmol radiolabeled peptide) is reported as “highest signal in cartilage”. The “Signal in synovial joints as a percentage of signal in blood, Average” value [3, 6] was 5627%, the “Signal in the intervertebral disc (IVD), Average” value (from here on “Signal in the intervertebral disc”) [3, 6] was 2758% and the “Signal in synovial joints as a percentage of signal in blood, Average” value [3, 7] was 5097%. The “Signal in the intervertebral disc” value [3, 7] was 4367%.

With “GSVRIPVSCRHSGQCLRPCRDAGIVIRFGRCMNGRCDCTPR [SEQ ID NO: 110]” the “Cartilage homing (qualitative, WBA)” value ([3]; 100 nmol radiolabeled peptide) was “showed signal in cartilage and exhibited cartilage homing properties”, the “Change of signal” value ([3]; 100 nmol radiolabeled peptide) was “decreased” and the “Signal in synovial joints as a percentage of signal in blood, Average” value [3, 6] was 3142%. For the same substance, the “Signal in the intervertebral disc” value [3, 6] was 2374%, the “Signal in synovial joints as a percentage of signal in blood, Average” value [3, 7] was 981% and the “Signal in the intervertebral disc” value [3, 7] was 1327%.

In the case of “GSEVIRCSGSKQCYGPCKQQTGCTNSKCMNKVCKCYGCG [SEQ ID NO: 28]”, the “Stability after heat incubation (HPLC)” value ([4]; 70 C for 1 hour) is reported as “resistant to heat-induced degradation” and the “Stability after heat incubation (HPLC)” value ([4]; 100 C for 1 hour) is reported as “underwent various degrees of degradation”.

For “30 (GSQIYTSKECNGSSECYSHCEGITGKRSGKCINKKCYCYR) [compound 30]”, the “Cartilage (C): percentage of signal” value (cartilage [2]) was 221% and the “Muscle (M): signal compared to the level in the blood” value (cartilage [2]) was 26%.

For “29 (GSACKGVFDACTPGKNECCPNRVCSDKHKWCKWKL) [compound 29]”, the “Cartilage (C): percentage of signal” value (cartilage [2]) was 243% and the “Muscle (M): signal compared to the level in the blood” value (cartilage [2]) was 26%.

In the case of “GSGDCLPHLRRCRENNDCCSRRCRRRGANPERRCR [SEQ ID NO: 200]”, the “Cartilage homing (qualitative, WBA)” value ([3]; 100 nmol radiolabeled peptide) is reported as “showed signal in cartilage and exhibited cartilage homing properties”, the “Change of signal” value ([3]; 100 nmol radiolabeled peptide) is reported as “maintained or increased” and the “Signal in the intervertebral disc” value [3, 6] is reported as 1809%. The “Signal in synovial joints as a percentage of signal in blood, Average” value [3, 7] was 4991% and the “Signal in the intervertebral disc” value [3, 7] was 3542%.

For “22 (GSSEKDCIKHLQRCRENKDCCSKKCSRRGTNPEKRCR) [compound 22]”, the “Cartilage (C): percentage of signal” value (cartilage [2]) was 337% and the “Muscle (M): signal compared to the level in the blood” value (cartilage [2]) was 27%.

In the case of “483 (GSISIGIKCSPSIDLCEGQCRIRKYFTGYCSGDTCHCSG) [compound 483]”, the “Cartilage (C): percentage of signal” value (cartilage [2]) is reported as 67% and the “Muscle (M): signal compared to the level in the blood” value (cartilage [2]) is reported as 24%.

In the case of “GSKCLPPGKPCYGATQKIPCCGVCSHNNCT [SEQ ID NO: 433, reference compound]”, the “Homing to cartilage (autoradiography, FIG. 11)” value (cartilage [2]; 24 hours after administration of 100 nmol) is reported as “did not home to cartilage and was seen in the bone marrow”.

In the case of “433 (GSKCLPPGKPCYGATQKIPCCGVCSHNNCT) [compound 433]”, the “Cartilage (C): percentage of signal” value (cartilage [2]) is reported as 156% and the “Muscle (M): signal compared to the level in the blood” value (cartilage [2]) is reported as 20%.

With “485 (METDTLLLWVLLLWVPGSTG) [compound 485]” the “Cartilage (C): percentage of signal” value (cartilage [2]) was 92% and the “Muscle (M): signal compared to the level in the blood” value (cartilage [2]) was 21%.

With “23 (GSVRIPVSCKHSGQCLKPCKDAGMRFGKCMNGKCDCTPK) [compound 23]” the “Cartilage (C): percentage of signal” value (cartilage [2]) was 497% and the “Muscle (M): signal compared to the level in the blood” value (cartilage [2]) was 26%.

For “31 (GSGCLEFWWKCNPNDDKCCRPKLKCSKLFKLCNFSFG) [compound 31]”, the “Cartilage (C): percentage of signal” value (cartilage [2]) was 306% and the “Muscle (M): signal compared to the level in the blood” value (cartilage [2]) was 68%.

With “GSQKILSNRCNNSSECIPHCIRIFGTRAAKCINRKCYCYP [SEQ ID NO: 196]” the “HPLC peaks under non-reducing versus reducing conditions (resistance to reduction by DTT)” value [5] was “Peaks showing the peptide under non-reducing conditions and reducing conditions are overlapping”.

In the case of “25 (GSAVCVYRTCDKDCKRRGYRSGKCINNACKCYPYG) [compound 25]”, the “Cartilage (C): percentage of signal” value (cartilage [2]) is reported as 358% and the “Muscle (M): signal compared to the level in the blood” value (cartilage [2]) is reported as 24%.

For “26 (GSISCTGSKQCYDPCKRKTGCPNAKCMNKSCKCYGCG) [compound 26]”, the “Cartilage (C): percentage of signal” value (cartilage [2]) was 413% and the “Muscle (M): signal compared to the level in the blood” value (cartilage [2]) was 38%.

For “GSQVQTNVRCQGGSCASVCRREIGVAAGRCINGRCVCYRN [SEQ ID NO: 114]”, the “Cartilage homing (qualitative, WBA)” value ([3]; 100 nmol radiolabeled peptide) was “showed signal in cartilage and exhibited cartilage homing properties”, the “Change of signal” value ([3]; 100 nmol radiolabeled peptide) was “reduced residence time with a signal near the limit of detection by 24 hours” and the “Signal in synovial joints as a percentage of signal in blood, Average” value [3, 6] was 1175%. For the same substance, the “Signal in the intervertebral disc” value [3, 6] was 1075% and the “Signal in the intervertebral disc” value [3, 7] was 191%.

For “24 (GSGVPINVKCRGSRDCLDPCKKAGMRFGKCINSKCHCTP) [compound 24]”, the “Cartilage (C): percentage of signal” value (cartilage [2]) was 624% and the “Muscle (M): signal compared to the level in the blood” value (cartilage [2]) was 34%.

For “33 (GSGCFGYKCDYYKGCCSGYVCSPTWKWCVRPGPGR) [compound 33]”, the “Cartilage (C): percentage of signal” value (cartilage [2]) was 179% and the “Muscle (M): signal compared to the level in the blood” value (cartilage [2]) was 28%.

In the case of “21 (GSGIVCKVCKIICGMQGKKVNICKAPIKCKCKKG) [compound 21]”, the “Cartilage (C): percentage of signal” value (cartilage [2]) is reported as 270% and the “Muscle (M): signal compared to the level in the blood” value (cartilage [2]) is reported as 36%.

With “28 (GSEVIRCSGSKQCYGPCKQQTGCTNSKCMNKVCKCYGCG) [compound 28]” the “Cartilage (C): percentage of signal” value (cartilage [2]) was 361% and the “Muscle (M): signal compared to the level in the blood” value (cartilage [2]) was 17%.

For “VFINVKCRGSPECLPKCKEAIGKSAGKCMNGKCKCYP [SEQ ID NO: 422]”, the “Cartilage homing” value (cartilage [1]) was “homes to cartilage”.

With “196 (GSQKILSNRCNNSSECIPHCIRIFGTRAAKCINRKCYCYP) [compound 196]” the “Cartilage (C): percentage of signal” value (cartilage [2]) was 291% and the “Muscle (M): signal compared to the level in the blood” value (cartilage [2]) was 30%.

With “27 (GSQVQTNVKCQGGSCASVCRREIGVAAGKCINGKCVCYRN) [compound 27]” the “Cartilage (C): percentage of signal” value (cartilage [2]) was 448% and the “Muscle (M): signal compared to the level in the blood” value (cartilage [2]) was 31%.
